The domain aggregation screens of Martell et al. (2025)

assay: soluble fraction after stress (log2 fold change); higher = more stays soluble; pooled small domains, quantitative proteomics; conditions: stress: 50 degC
In short: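 Pooled custom libraries of small protein domains were measured in a high-throughput format, with quantitative proteomics as the read-out. Each library was stressed at 50°C. Aggregation propensity is given as the base-two logarithm of the fold change in how much of each protein stays soluble after the stress. Higher values mean a larger share of the protein remains in solution.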

| Sequence | soluble fraction (log2) |
| --- | --- |
| HMSAGKKSFTNSEFRRFLDALGEGLIVKHKKLGEGVVVEIRGDKAVIQFGDEQRLYELKTLYEYDLLR | -0.12 |
| HMEPDEIVLDHRKRIENSDAIVLIAPIWNFRMPAILEGWIDKVLAPPWAFKFKKLFGNYGYPVGNLKG | 0.103 |
| HMTVIARQIPPLVPRMLDGLEAFIKLDVPFEEKERLARVQMLRSSLDRDNLDTAEIFRAVLEAYNIELQY | 0.0196 |
| HMNDIQIILQEAVARLPKKQQLVFNMKYFDHLKYQEISEILGTSVGGLKASYFQAVKKIENYIINKH | -2.38 |
| HMQLFKFKNAMMELAKNKNITLDTAEKAIGLEAGFTELVARGVKELALSDVIKISKYFNTTMDSVLD | -0.903 |
| HMPLSVRQRMSDILSNLKTSDFTNFADLFDPKEGRTGITVTFIAILELLREFLIEVVQSDHYQPLHVRAAS | -0.291 |
| HMSNWTILIIQGSAHLIDLDSKITEIDGFGSFPTKILQDYNLNEEFEIFDTNVKMVNSVQSDLQSN | -2.56 |
| HMVELPDLIGKSKRLAFTQLEISGLKIGKIIYEPDLAKDAVLKILYNGKIVKAGEQLPRFATVDLVLG | -0.0407 |
| HMEGLDDKTKIILFAGDKKEQEYSLADLKSKLNITENLTESELIKLLEKQGYVLDVNANNEFMFKKD | -0.0985 |
| HMDSSITLMRMYIPKGHNWENKLISDVSMPTNSLALMIKRNGTTIIPKGDTMILAKDTLILSVPSYEPS | -1.13 |
| HMVFTEEEMLEKIKEYLSTNSYINRRAMETLFNLRQSTALKWLGHFTEIGVLRKEGERNYPVYFLNN | -0.296 |
| HMNALVAKYKQGVTEEQQQGQGIIIIKRVVVRDQEAWVYEKKIFDWGGVSYFRDKQRITASTFNQETAL | -2.86 |
| HMLPDVSITGHIFIRSGSRLNRIFVGESTYHVGDMLDGKWLIESINSDSLELRSGTQTTELPL | -2.58 |
| HMFDNPLSERDKEILNHISMGKSNKEIANQVGLAEQTIKNTISVILDKTFTSNRAQAASMATKNKW | 0.547 |
| HMTSLYDILGIAKTADSQTIKTAFKKKALLYHPDKNNGNLKKEEIFKKISTAYQILSDPKSRANYDLSIA | -0.115 |
| HMFDFGNHLRMLREKHGISQEELGRRVGRAGSVISNYENNIKIPTLDVLTTMARIYDVSLDYLVG | -1.36 |
| HMNTVSVGNLGLSVRAVNALKQAGIDTYDKLQELSWEELLLIPKLGQVTAAEIYRFITSYKKG | -0.552 |

| Sequence | soluble fraction (log2) |
| --- | --- |
| HMAIEMSTITKRVTSTGEIRYRALLQIRREDVNYTESRTFSKKSLAEAWLKKREVELEANPELLHQ | -1.32 |
| HMFETLVLALAQAWPAERGPVEALQFEGGRLSLQRSGFADEQVEALRQRLSSEGWTLQTEQGRLILNKAG | -0.884 |
| HMSVKTIRKTEFAKRLYSLMLEKNWNQSDLARASGMGRDSVSQYIRANNTPSPQNLKKLAEALGVEPVELY | -1.3 |
| HMNMNDIKFGKYLKRVRKKYNFSKEYVANILKVKESLVSDWESGRLTLNDEYMEKLSLFYGVNLYKK | -0.863 |
| HMKTGTTGLIGEIGVVKKALTPEGKVFVHGELWRAVSKTASPEGTLVQVIKINNLVLEVEKV | -1.47 |
| HMQDSSGENNPQSKLTQQQVDLLMKDLKETNVEFDKLAEKYNVSIKTIRNVNTGIAWRKNDITYPIREP | -0.204 |
| HMFAQDQLFKKDNSKVDVKILEINTTEIKYKLFTYQDGPTITVAKKDVALIIYQNGVHEVIT | -2.15 |
| HMSRFLEGILQRRAGGKNYFVPDDGSNPIFIADRNSAGAANGDRVRIAQFARRPRSGPEGEVVEILKRAK | -0.00665 |
| HMNTLLGLSNSFQDNKDLENANSISRRFISYRPRSEAELRIRLLKVFSHEIVLESVAQMYREGLLNDQRF | -3.33 |
| HMIFELDSDRASAGNTIGKLVSKWNNTEVASVQFVSGDDTSNKDNASIYLNTRSGGSGNLVRLRITK | 0.168 |
| HMAKDDFMSFVKAVWPEFIEGAHHRVIAQKFNDLATGKITRLIVNMPPRHTKSEFASYLLPAW | 0.107 |
| HMQPSQTLSATVEFPDRLDRFLALAFPEVSRARFQRLIAEGHVSVEGVPATEIRHKLKAGQRVEAVIPPA | 0.0663 |
| HMLKGTVKWFNESKGFGFIEQEEGKDVFVHYSAITGSGFKTLNEGDKVQFEIVDGPKGPAAANVSK | -0.0666 |
| HMEELTPLQKYVFDYESDISDEVDMRAIKGLENANDVYDYYANVRGWEGDPDLEDDLDNIYRQVKARFA | 0.0161 |
| HMNYIGADAAKNMAAADAQVDTANASFSGANLGEKNGLSYYQVDFTANGREYHYAIDAMTGTVIESSSAAS | 0.124 |
| HMPTLNIVDGHIAASDGVRILSIHNVTGRRYATSSKLPAGIYIVVLMPAKAETPLTVKVIVEA | -1.6 |
| HMIHMNMGQKINQLRLQKGFTLEELGNLVGVGKSTVRKWENGMIANMKRDKILLVAEALDTSPAYLMGWD | -1.54 |
